Data: patent publication US11111484B2, “Streptococcus bacteriophage lysins for detection and treatment of gram positive bacteria” (priority 2011, dated 2021)
Entries after “also recorded” stand apart in the source; their conditions may differ.

What was measured:
S. pyogenes strain 5005 = assay: resistance assay, exposure to incrementally increasing concentrations; type: cell-based, Streptococcus pyogenes; settings: S. pyogenes 5005; concentration doubled daily from 1/32 to 4× MIC over 8 days
[1] = PlySs2 solubility / concentrated solution; type: physicochemical; settings: ≈20 mg/ml solution
Experimental: The aforementioned preparation led to a highly pure lysin preparation in just two chromatographic steps (FIG. 6). With a predicted pi of 9.01, PlySs2 flowed directly through the DEAE column at pH=7.4 leaving the bulk of the contaminant proteins stuck to the DEAE column. PlySs2 eluted cleanly in the shoulder of the flow through and at 17 mM NaCl, being purified from proteins that rapidly flowed through the CM resin. This preparation yielded ≈60 mg of protein per liter of E. coli culture at ≈1.5 mg/ml with >99% purity. The yield increased to ≈150 mg per liter of E. coli culture at ≈2.0 mg/ml with >90% purity when the CM column step was forwent. If necessary, the latter product was: dialyzed (into 5 mM PB, 15 mM NaCl); lyophilized; reconstituted (at 10% of the original volume); centrifuged; and filter-sterilized (to remove any insoluble material). […] PlySs2 can be produced more efficiently, and at a higher concentration, than many published lysins (Daniel A et al (2010) Antimicrob Agents Chemother 54(4):1602-1612; Wang, Y. et al (2009) Curr Microbiol 58(6):609-615; Nelson, D et al (2006) Proc Natl Acad Sci USA 103(28):10765-10770).
PlySs2 is more tractable and stable than previously developed lysins. PlySs2 preparation is straightforward, yielding large quantities in few steps. In addition, a highly soluble lysin is essential, because it allows for ready use at high concentrations. […]

S. rattus BHT = assay: ΔPlySs1 OD600 lysis, 1 hr, optimal buffering conditions; type: cell-based, Streptococcus rattus
S. equi 9528 = assay: as above; type: cell-based, Streptococcus equi
S. suis strain 7711 = assay: ΔPlySs1 growth inhibition in BHI broth; type: cell-based, Streptococcus suis; settings: overnight, 96-well plate
Experimental: The optical density of each sample was measured continuously overnight in 96-well plate format. Overall, bacterial growth was delayed in a dose-dependent manner. However, for enzyme-concentrations that were sufficient to induce lysis in buffered solutions (130 and 50 μg/ml), the effect was quite minimal here. […] For all of the treated samples, one will note that the final optical densities are actually higher than that of the untreated sample. This is an artifact of the accumulation of aggregated bacterial debris that occurred in the presence of lytic enzyme.
(§1) Truncated PlySs1(ΔPlySs1) lysin activity was determined against different cell types. Given the above experiments, the following optimal buffering conditions were employed for all further in vitro experiments with ΔPlySs1: 20 mM phosphate buffer, pH=7.8, 2 mM EDTA. A range of lysin concentrations, from 6.5-130 μg/ml, were introduced to live S. suis cells in this buffer. Three strains were considered particularly relevant: 7711, the serotype 7 strain that encodes PlySs1; S735, the serotype 2 reference strain; and 7997, a highly virulent serotype 9 strain. In terms of bacterial viability, only the highest PlySs1-concentration (130 μg/ml) led to a >90% decrease in CFUs for 7711, S735, and 7997 after 1 hr treatment (TABLE 2). The lysin was also tested against actively-dividing cells in broth culture (strain 7711) (FIG. 20).

S. mutans U159 = assay: ΔPlySs1 OD600 lysis, 1 hr, optimal buffering conditions; type: cell-based, Streptococcus mutans
S. suis 7997 (ST9) = assay: ΔPlySs1 CFU analysis, 1 hr treatment; type: cell-based, Streptococcus suis
Experimental: as §1
(§2) For two ΔPlySs1 concentrations (130 and 13 μg/ml), CFU analysis was conducted on S. suis strains S735, 7997, and 7711 after 1 hr treatment (optimal buffering conditions). In each experiment, the percentage-decrease in CFUs was determined for the treated sample versus the untreated. The range of the values observed (across 3 independent experiments) is reported here for each strain. The serotype of each strain is indicated in parentheses.

S. suis S735 (ST2) = assay: ΔPlySs1 CFU analysis, 1 hr treatment; type: cell-based, Streptococcus suis
Experimental: as §1, §2

S. suis 7711 (ST7) = assay: ΔPlySs1 CFU analysis, 1 hr treatment; type: cell-based, Streptococcus suis
Experimental: as §1, §2

M. luteus 4698 = assay: ΔPlySs1 OD600 lysis, 1 hr, optimal buffering conditions; type: cell-based

B1: PlySs2: Streptococcus suis prophage lysin, SEQ ID NO:3; N-terminal CHAP domain and C-terminal SH3-type 5 domain (protein, listed as Streptococcus suis)
chain: MTTVNEALNNVRAQVGSGVSVGNGECYALASWYERMISPDATVGLGAGVGWVSGAIGDTISAKNIGSSYNWQANGWTVSTSGPFKAGQIVTLGATPGNPYGHVVIVEAVDGDRLTILEQNYGGKRYPVRNYYSAASYRQQVVHYITPPGTVAQSAPNLAGSRSYRETGTMTVTVDALNVRRAPNTSGEIVAVYKRGESFDYDTVIIDVNGYVWVSYIGGSGKRNYVATGATKDGKRFGNAWGTFK
development of resistance (S. pyogenes strain 5005): neither MRSA nor S. pyogenes established resistance; also recorded: None of MRSA strain MW2, MSSA strain 8325, nor S. pyogenes strain 5005 developed resistance | activity after lyophilization and reconstitution to concentrated solution [1]: retained the concentration-adjusted activity

B2: ΔPlySs1: truncated PlySs1 lysin, SEQ ID NO:2, N-terminal 254 amino acids: only N-terminal enzymatic and central binding domains (protein, listed as Streptococcus suis)
chain: MTINLETSIRWMSDRVGKVSYSMDYRNGPNSYDCSSAVYYALMAGGAISAGWAVNTEYMHDWLIRNGYVLVAENKPFNAQRHDVCILGKRGYSSGAGGHVVIFVDNVNVIHCNYARNGISIDNYNQVHRGMYYYLYRPANQPSISNKSLDQLVKETLAGVHGNGDTRKASLGSQYEAVMAVINGKASASEKSDEELAREVLAGKHGAGEDRKRSLGPRYEPVQAKVNELLKAKEKPSETAKNEPQTVQFKEDGDL
lysis value after 1 hr (treated/untreated OD600 ratio) (S. rattus BHT; 6.5 μg/ml): 0.82 | lysis value after 1 hr (treated/untreated OD600 ratio) (S. rattus BHT; 13 μg/ml): 0.84 | lysis value after 1 hr (treated/untreated OD600 ratio) (S. rattus BHT; 30 μg/ml): 0.82 | lysis value after 1 hr (treated/untreated OD600 ratio) (S. rattus BHT; 65 μg/ml): 0.83 | lysis value after 1 hr (treated/untreated OD600 ratio) (S. rattus BHT; 130 μg/ml): 0.79 | lysis value after 1 hr (treated/untreated OD600 ratio) (S. equi 9528; 6.5 μg/ml): 0.66 | lysis value after 1 hr (treated/untreated OD600 ratio) (S. equi 9528; 13 μg/ml): 0.45 | lysis value after 1 hr (treated/untreated OD600 ratio) (S. equi 9528; 30 μg/ml): 0.25 | lysis value after 1 hr (treated/untreated OD600 ratio) (S. equi 9528; 65 μg/ml): 0.19 | lysis value after 1 hr (treated/untreated OD600 ratio) (S. equi 9528; 130 μg/ml): 0.16 | MIC / growth inhibition (S. suis strain 7711): could not inhibit S. suis growth outright; also recorded: a MIC could not be assigned | lysis value after 1 hr (treated/untreated OD600 ratio) (S. mutans U159; 6.5 μg/ml): 0.95 | lysis value after 1 hr (treated/untreated OD600 ratio) (S. mutans U159; 13 μg/ml): 0.99 | lysis value after 1 hr (treated/untreated OD600 ratio) (S. mutans U159; 30 μg/ml): 0.94 | lysis value after 1 hr (treated/untreated OD600 ratio) (S. mutans U159; 65 μg/ml): 0.76 | lysis value after 1 hr (treated/untreated OD600 ratio) (S. mutans U159; 130 μg/ml): 0.85 | percentage-decrease in CFUs, range of 3 experiments (S. suis 7997 (ST9); 13 μg/ml): 16.8%-30.3% | percentage-decrease in CFUs, range of 3 experiments (S. suis 7997 (ST9); 130 μg/ml): 89.9%-93.9% | percentage-decrease in CFUs, range of 3 experiments (S. suis 7997 (ST9); 130 μg/ml, listed as PlySs1): > 90% | percentage-decrease in CFUs, range of 3 experiments (S. suis S735 (ST2); 13 μg/ml): 80.4%-92.6% | percentage-decrease in CFUs, range of 3 experiments (S. suis S735 (ST2); 130 μg/ml): 95.4%-99.5% | percentage-decrease in CFUs, range of 3 experiments (S. suis S735 (ST2); 130 μg/ml, listed as PlySs1): > 90% | percentage-decrease in CFUs, range of 3 experiments (S. suis 7711 (ST7); 13 μg/ml): 0%-35.6% | percentage-decrease in CFUs, range of 3 experiments (S. suis 7711 (ST7); 130 μg/ml): 95.3%-99.2% | percentage-decrease in CFUs, range of 3 experiments (S. suis 7711 (ST7); 130 μg/ml, listed as PlySs1): > 90% | lysis value after 1 hr (treated/untreated OD600 ratio) (M. luteus 4698; 6.5 μg/ml): 0.84 | lysis value after 1 hr (treated/untreated OD600 ratio) (M. luteus 4698; 13 μg/ml): 0.90 | lysis value after 1 hr (treated/untreated OD600 ratio) (M. luteus 4698; 30 μg/ml): 0.83 | lysis value after 1 hr (treated/untreated OD600 ratio) (M. luteus 4698; 65 μg/ml): 0.87 | lysis value after 1 hr (treated/untreated OD600 ratio) (M. luteus 4698; 130 μg/ml): 0.82
